T1: Bovine lipoprotein lipase (bovine, UniProt P11151 29-478)
T1 sequence (looked up): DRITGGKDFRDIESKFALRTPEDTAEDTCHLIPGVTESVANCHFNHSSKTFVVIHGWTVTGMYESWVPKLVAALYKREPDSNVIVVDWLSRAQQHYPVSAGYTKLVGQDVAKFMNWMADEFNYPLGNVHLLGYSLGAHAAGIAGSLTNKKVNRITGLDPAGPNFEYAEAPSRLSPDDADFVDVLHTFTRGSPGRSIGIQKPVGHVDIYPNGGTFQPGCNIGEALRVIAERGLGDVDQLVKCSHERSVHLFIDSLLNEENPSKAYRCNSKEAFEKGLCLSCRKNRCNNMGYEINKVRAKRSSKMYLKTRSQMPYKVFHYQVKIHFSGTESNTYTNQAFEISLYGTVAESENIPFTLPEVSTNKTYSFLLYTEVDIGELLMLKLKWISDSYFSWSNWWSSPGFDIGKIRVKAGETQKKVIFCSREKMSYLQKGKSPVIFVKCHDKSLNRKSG


Key:
[1] = biological target: T1, Bovine lipoprotein lipase; assay: cell-based or functional assay
[2] = biological target: T1, Bovine lipoprotein lipase; assay: enzyme inhibition kinetics (global noncompetitive fit of Michaelis-Menten curves); 10 nM bovine LPL pre-incubated with ANGPTL for 10 min at 22 °C, human VLDL varied, NEFA enzyme-coupled Amplex UltraRed read-out at 37 °C, initial rates; three biological replicates; settings: both partners purified
[3] = biological target: the molecule itself; assay: SEC-MALS; 24-ml S-200 column, 20 mM Tris-HCl pH 8, 150 mM NaCl, 5% glycerol, 0.5 ml/min; separately concentrated SEC peaks reinjected
[4] = biological target: the molecule itself; assay: SEC; HEK-293-produced N-terminal ANGPTL3; elution compared with E. coli-produced ANGPTL3

| Binder | IC50 of inhibition of LPL activity (10 nM LPL, 200 μg/ml VLDL triglycerides, NEFA/Amplex UltraRed assay) [1] [nM] | Ki [2] [nM] | stoichiometry N [3] | stoichiometry N [4] |
| --- | --- | --- | --- | --- |
| N-terminal domain of human ANGPTL3 (S17-R224), trimer (domain or fragment, UniProt Q9Y5C1 17-224, looked up, N-terminal (coiled-coil) domain of human ANGPTL3, residues S17 to R224; purified protein with tag 26.8 kDa; Same construct as m1; also called ANGPTL3 peak 2; ANGPTL3 trimer; source: E. coli Bl21 (DE3) RIPL, purified (Ni-NTA, MonoQ anion exchange, SEC; peak 2 pooled)) SRIDQDNSSFDSLSPEPKSRFAMLDDVKILANGLLQLGHGLKDFVHKTKGQINDIFQKLNIFDQSFYDLSLQTSEIKEEEKELRRTTYKLQVKNEEVKNMSLELNSKLESLLEEKILLQQKVKYLEEQLTNLIQNQPETPEHPEVTSLKTFVEKQDNSIKDLLQTVEDQYKQLNQQHSQIKEIENQLRRTSIQEPTEISLSSKPRAPR | 5.8 | 7.5 | 3 |  |
| N-terminal ANGPTL3 (1 to 224) produced in HEK-293 cells (domain or fragment, human, UniProt Q9Y5C1 17-224, looked up, N-linked glycans (sites not given), signal peptide in the construct; human ANGPTL3 residues 1 to 224, collected from the expression medium; also called ANGPTL3 produced in mammalian cells) SRIDQDNSSFDSLSPEPKSRFAMLDDVKILANGLLQLGHGLKDFVHKTKGQINDIFQKLNIFDQSFYDLSLQTSEIKEEEKELRRTTYKLQVKNEEVKNMSLELNSKLESLLEEKILLQQKVKYLEEQLTNLIQNQPETPEHPEVTSLKTFVEKQDNSIKDLLQTVEDQYKQLNQQHSQIKEIENQLRRTSIQEPTEISLSSKPRAPR |  |  |  | 3 |

Further lines, with some results ahead:

| IC50 of inhibition of LPL activity (10 nM LPL, 200 μg/ml VLDL triglycerides, NEFA/Amplex UltraRed assay) [1] [nM] | Ki [2] [nM] | Binder | stoichiometry N [3] | stoichiometry N [4] |
| --- | --- | --- | --- | --- |
| 14.4 | 13.7 | N-terminal domain of human ANGPTL3 (S17-R224), hexamer (domain or fragment, UniProt Q9Y5C1 17-224, looked up, N-terminal (coiled-coil) domain of human ANGPTL3, residues S17 to R224; purified protein with tag 26.8 kDa; No TEV cleavage step is described; Same construct as m2; also called ANGPTL3 peak 1; ANGPTL3 hexamer; source: E. coli Bl21 (DE3) RIPL, purified (Ni-NTA, MonoQ anion exchange, SEC; peak 1 pooled); not shown: His6 with TEV cleavage site, N-terminal, kept) SRIDQDNSSFDSLSPEPKSRFAMLDDVKILANGLLQLGHGLKDFVHKTKGQINDIFQKLNIFDQSFYDLSLQTSEIKEEEKELRRTTYKLQVKNEEVKNMSLELNSKLESLLEEKILLQQKVKYLEEQLTNLIQNQPETPEHPEVTSLKTFVEKQDNSIKDLLQTVEDQYKQLNQQHSQIKEIENQLRRTSIQEPTEISLSSKPRAPR | 6 |  |
| 4.8 | 3.6 | N-terminal domain of human ANGPTL4 (domain or fragment, UniProt Q9BY76 26-163, looked up, N-terminal (coiled-coil) domain of human ANGPTL4; monomer 15.4 kDa; also called N-terminal ANGPTL4; ANGPTL4 trimer) GPVQSKSPRFASWDEMNVLAHGLLQLGQGLREHAERTRSQLSALERRLSACGSACQGTEGSTDLPLAPESRVDPEVLHSLQTQLKAQNSRIQQLFHKVAQQQRHLEKQHLRIQHLQSQFGLLDHKHLDHEVAKPARRK | 3 |  |

From paper PMC7949051, “Comparison of angiopoietin-like protein 3 and 4 reveals structural and mechanistic similarities” (The Journal of Biological Chemistry, 2021)
